Data taken from the supplement of paper PMC9112550, “Optimization of the antimicrobial peptide Bac7 by deep mutational scanning” (BMC Biology, 2022).

Test system: Escherichia coli TOP10
Assay: shrunken log2 fold change of peptide-encoding DNA abundance (4.5 h post-induction vs induction); higher = less antimicrobial activity (less host growth inhibition)
Details: time post-induction: 4.5 h; library: site-saturation at positions 5, 18, 19, 20
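Also: peptides expressed intracellularly from a pBAD plasmid library in pooled LB shake-flask culture, induced with 0.3% L-arabinose, DNA abundance read by NGS, three biological replicates, DESeq2 with apeglm shrinkage.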

RRIRGRPPRLPRPRPRPFLCPRP
shrunken log2 fold change: 0.231

RRIRRRPPRLPRPRPRPDPIPRP
shrunken log2 fold change: 0.227

RRIRMRPPRLPRPRPRPIIPPRP
shrunken log2 fold change: 0.000609

RRIRRRPPRLPRPRPRPKCTPRP
shrunken log2 fold change: -0.373

RRIRHRPPRLPRPRPRPRSPPRP
shrunken log2 fold change: 0.243

RRIRFRPPRLPRPRPRPRRFPRP
shrunken log2 fold change: 0.0577

RRIRFRPPRLPRPRPRPNSIPRP
shrunken log2 fold change: -0.216

RRIRPRPPRLPRPRPRPTFDPRP
shrunken log2 fold change: -0.0186

RRIRHRPPRLPRPRPRPSAQPRP
shrunken log2 fold change: 0.127

RRIRWRPPRLPRPRPRPTCAPRP
shrunken log2 fold change: 0.868

RRIRSRPPRLPRPRPRPNIYPRP
shrunken log2 fold change: -0.519

RRIRTRPPRLPRPRPRPDKRPRP
shrunken log2 fold change: -0.0389

RRIRRRPPRLPRPRPRPKPAPRP
shrunken log2 fold change: 0.347

RRIRGRPPRLPRPRPRPETEPRP
shrunken log2 fold change: 2.25

RRIRPRPPRLPRPRPRPVWLPRP
shrunken log2 fold change: 0.577

RRIRPRPPRLPRPRPRPEIRPRP
shrunken log2 fold change: 0.0106

RRIRKRPPRLPRPRPRPINFPRP
shrunken log2 fold change: -0.962

RRIRWRPPRLPRPRPRPTPKPRP
shrunken log2 fold change: 0.627

RRIRGRPPRLPRPRPRPLAQPRP
shrunken log2 fold change: 0.888

RRIRYRPPRLPRPRPRPGDRPRP
shrunken log2 fold change: 0.196

RRIRPRPPRLPRPRPRPDHYPRP
shrunken log2 fold change: -0.203

RRIRTRPPRLPRPRPRPTEQPRP
shrunken log2 fold change: 0.303

RRIRVRPPRLPRPRPRPDACPRP
shrunken log2 fold change: -0.11

RRIRTRPPRLPRPRPRPLKPPRP
shrunken log2 fold change: -0.126

RRIRFRPPRLPRPRPRPRISPRP
shrunken log2 fold change: -0.0207

RRIRWRPPRLPRPRPRPHYAPRP
shrunken log2 fold change: -0.0597

RRIRMRPPRLPRPRPRPQHYPRP
shrunken log2 fold change: -0.116

RRIRSRPPRLPRPRPRPRYVPRP
shrunken log2 fold change: -0.597

RRIRARPPRLPRPRPRPNTRPRP
shrunken log2 fold change: 0.12

RRIRKRPPRLPRPRPRPSQNPRP
shrunken log2 fold change: 0.269

RRIRVRPPRLPRPRPRPVFIPRP
shrunken log2 fold change: -0.144

RRIRYRPPRLPRPRPRPHIIPRP
shrunken log2 fold change: -0.501

RRIRMRPPRLPRPRPRPGHTPRP
shrunken log2 fold change: 0.488

RRIRIRPPRLPRPRPRPMNWPRP
shrunken log2 fold change: -0.135

RRIRTRPPRLPRPRPRPLIWPRP
shrunken log2 fold change: 0.361

RRIRNRPPRLPRPRPRPAWGPRP
shrunken log2 fold change: 0.288

RRIRLRPPRLPRPRPRPKCGPRP
shrunken log2 fold change: 0.338

RRIRQRPPRLPRPRPRPDRGPRP
shrunken log2 fold change: 0.0176

RRIRGRPPRLPRPRPRPVVAPRP
shrunken log2 fold change: 1.19

RRIRIRPPRLPRPRPRPVIPPRP
shrunken log2 fold change: -0.358

RRIRCRPPRLPRPRPRPLWWPRP
shrunken log2 fold change: 0.204

RRIRERPPRLPRPRPRPYNWPRP
shrunken log2 fold change: -0.276

RRIRYRPPRLPRPRPRPEDLPRP
shrunken log2 fold change: -0.00674

RRIRERPPRLPRPRPRPQARPRP
shrunken log2 fold change: -0.0863

RRIRVRPPRLPRPRPRPASAPRP
shrunken log2 fold change: 0.309

RRIRGRPPRLPRPRPRPINCPRP
shrunken log2 fold change: -0.0247

RRIRTRPPRLPRPRPRPTDNPRP
shrunken log2 fold change: -0.302

RRIRMRPPRLPRPRPRPYCQPRP
shrunken log2 fold change: -0.0783

RRIRPRPPRLPRPRPRPYCMPRP
shrunken log2 fold change: -0.505

RRIRWRPPRLPRPRPRPAPDPRP
shrunken log2 fold change: 1.14

RRIRDRPPRLPRPRPRPSPEPRP
shrunken log2 fold change: 0.778

RRIRDRPPRLPRPRPRPIHNPRP
shrunken log2 fold change: -0.06

RRIRVRPPRLPRPRPRPPRSPRP
shrunken log2 fold change: 0.37

RRIRYRPPRLPRPRPRPGAEPRP
shrunken log2 fold change: 0.227

RRIRCRPPRLPRPRPRPTTRPRP
shrunken log2 fold change: 0.176

RRIRCRPPRLPRPRPRPRDIPRP
shrunken log2 fold change: -0.132

RRIRQRPPRLPRPRPRPAVKPRP
shrunken log2 fold change: -0.00195

RRIRERPPRLPRPRPRPDHPPRP
shrunken log2 fold change: -0.0179

RRIRGRPPRLPRPRPRPCGNPRP
shrunken log2 fold change: 0.255

RRIRNRPPRLPRPRPRPCVLPRP
shrunken log2 fold change: -0.202

RRIRWRPPRLPRPRPRPETWPRP
shrunken log2 fold change: 0.502

RRIRVRPPRLPRPRPRPSWRPRP
shrunken log2 fold change: -0.0696

RRIRVRPPRLPRPRPRPPHLPRP
shrunken log2 fold change: -0.0283

RRIRKRPPRLPRPRPRPNRWPRP
shrunken log2 fold change: 0.398

RRIRARPPRLPRPRPRPRTAPRP
shrunken log2 fold change: 0.844

RRIRGRPPRLPRPRPRPEGPPRP
shrunken log2 fold change: -0.0198

RRIRNRPPRLPRPRPRPVASPRP
shrunken log2 fold change: -0.0843

RRIRCRPPRLPRPRPRPNTCPRP
shrunken log2 fold change: -0.463

RRIRFRPPRLPRPRPRPVSSPRP
shrunken log2 fold change: -0.371

RRIRERPPRLPRPRPRPNWPPRP
shrunken log2 fold change: 0.202

RRIRIRPPRLPRPRPRPATKPRP
shrunken log2 fold change: -0.195

RRIRMRPPRLPRPRPRPSYPPRP
shrunken log2 fold change: -0.412

RRIRDRPPRLPRPRPRPALPPRP
shrunken log2 fold change: 0.328

RRIRERPPRLPRPRPRPRETPRP
shrunken log2 fold change: 0.0334

RRIRMRPPRLPRPRPRPRRDPRP
shrunken log2 fold change: 0.651

RRIRTRPPRLPRPRPRPRALPRP
shrunken log2 fold change: 0.116

RRIRFRPPRLPRPRPRPTQRPRP
shrunken log2 fold change: 0.98

RRIRIRPPRLPRPRPRPMSGPRP
shrunken log2 fold change: 0.174

RRIRHRPPRLPRPRPRPTKDPRP
shrunken log2 fold change: -0.154

RRIRIRPPRLPRPRPRPVMMPRP
shrunken log2 fold change: -0.31

RRIRYRPPRLPRPRPRPNAKPRP
shrunken log2 fold change: -0.0394

RRIRIRPPRLPRPRPRPPWTPRP
shrunken log2 fold change: 0.0205

RRIRGRPPRLPRPRPRPRFFPRP
shrunken log2 fold change: 0.741

RRIRNRPPRLPRPRPRPYCEPRP
shrunken log2 fold change: -0.469

RRIRSRPPRLPRPRPRPDTSPRP
shrunken log2 fold change: -0.0998

RRIRPRPPRLPRPRPRPQDCPRP
shrunken log2 fold change: 0.104

RRIRKRPPRLPRPRPRPTCQPRP
shrunken log2 fold change: 0.333

RRIRVRPPRLPRPRPRPTPQPRP
shrunken log2 fold change: 0.279

RRIRPRPPRLPRPRPRPTNRPRP
shrunken log2 fold change: -0.104

RRIRNRPPRLPRPRPRPPGEPRP
shrunken log2 fold change: 0.0757

RRIRSRPPRLPRPRPRPYKEPRP
shrunken log2 fold change: -0.0146

RRIRNRPPRLPRPRPRPAVIPRP
shrunken log2 fold change: -0.277

RRIRGRPPRLPRPRPRPAFKPRP
shrunken log2 fold change: 0.177

RRIRERPPRLPRPRPRPTKLPRP
shrunken log2 fold change: -0.0612

RRIRDRPPRLPRPRPRPEAVPRP
shrunken log2 fold change: 0.0262

RRIRTRPPRLPRPRPRPCYPPRP
shrunken log2 fold change: -0.425

RRIRVRPPRLPRPRPRPNWQPRP
shrunken log2 fold change: 0.108

RRIRVRPPRLPRPRPRPIESPRP
shrunken log2 fold change: -0.0725

RRIRYRPPRLPRPRPRPFMLPRP
shrunken log2 fold change: -1.19

RRIRLRPPRLPRPRPRPLEPPRP
shrunken log2 fold change: 0.0493

RRIRSRPPRLPRPRPRPVSIPRP
shrunken log2 fold change: -0.319

RRIRVRPPRLPRPRPRPHYDPRP
shrunken log2 fold change: -0.379

RRIRVRPPRLPRPRPRPPFTPRP
shrunken log2 fold change: 0.955

RRIRMRPPRLPRPRPRPKNIPRP
shrunken log2 fold change: -0.232

RRIRTRPPRLPRPRPRPVCGPRP
shrunken log2 fold change: 0.179

RRIRKRPPRLPRPRPRPGGNPRP
shrunken log2 fold change: 0.049

RRIRKRPPRLPRPRPRPYQFPRP
shrunken log2 fold change: -0.17

RRIRWRPPRLPRPRPRPFMLPRP
shrunken log2 fold change: -0.174

RRIRGRPPRLPRPRPRPGFWPRP
shrunken log2 fold change: 0.581
